We go through two proteins from article PMC7603204.

For orientation: Km means the concentration of substrate that gives half-maximal velocity. As usually defined, the kcat is the maximal rate divided by the concentration of active sites. As a reminder, the kcat/Km is the second-order rate constant that governs catalysis at low substrate concentration.

Substrate in this series: C[C@H](N)C(=O)O
The series is described as follows: purified protein. To be noted: 2 mM ATP, 2 mM PPi, 10 mM MgCl2, 30 mM KCl, 2 mM NaF, pH 7.2, 37 °C, amino acid activation.

B1: E. coli AlaRS (Escherichia coli K-12; C666A/D551Y) (protein)
chain: SKSTAEIRQAFLDFFHSKGHQVVASSSLVPHNDPTLLFTNAGMNQFKDVFLGLDKRNYSRATTSQRCVRAGGKHNDLENVGYTARHHTFFEMLGNFSFGDYFKHDAIQFAWELLTSEKWFALPKERLWVTVYESDDEAYEIWEKEVGIPRERIIRIGDNKGAPYASDNFWQMGDTGPCGPCTEIFYDHGDHIWGGPPGSPEEDGDRYIEIWNIVFMQFNRQADGTMEPLPKPSVDTGMGLERIAAVLQHVNSNYDIDLFRTLIQAVAKVTGATDLSNKSLRVIADHIRSCAFLIADGVMPSNENRGYVLRRIIRRAVRHGNMLGAKETFFYKLVGPLIDVMGSAGEDLKRQQAQVEQVLKTEEEQFARTLERGLALLDEELAKLSGDTLDGETAFRLYDTYGFPVDLTADVCRERNIKVDEAGFEAAMEEQRRRAREASGFGADYNAMIRVDSASEFKGYDHLELNGKVTALFVDGKAVDAINAGQEAVVVLDQTPFYAESGGQVGDKGELKGANFSFAVEDTQKYGQAIGHIGKLAAGSLKVGDAVQAYVDEARRARIRLNHSATHLMHAALRQVLGTHVSQKGSLVNDKVLRFDFSHNEAMKPEEIRAVEDLVNTQIRRNLPIETNIMDLEAAKAKGAMALFGEKYDERVRVLSMGDFSTELAGGTHASRTGDIGLFRIISESGTAAGVRRIEAVTGEGAIATVHADSDRLSEVAHLLKGDSNNLADKVRSVLERTRQLEKELQQLKEQAAAQESANLSSKAIDVNGVKLLVSELSGVEPKMLRTMVDDLKNQLGSTIIVLATVVEGKVSLIAGVSKDVTDRVKAGELIGMVAQQVGGKGGGRPDMAQAGGTDAAALPAALASVKGWVSAKLQ
B1: the Km is reported as 217 ± 100 µM, the kcat amounted to 18.3 s⁻¹ and the kcat/Km was found to be 84300 M⁻¹ s⁻¹.

B2: E. coli AlaRS (Escherichia coli K-12; R561C) (protein)
chain: SKSTAEIRQAFLDFFHSKGHQVVASSSLVPHNDPTLLFTNAGMNQFKDVFLGLDKRNYSRATTSQRCVRAGGKHNDLENVGYTARHHTFFEMLGNFSFGDYFKHDAIQFAWELLTSEKWFALPKERLWVTVYESDDEAYEIWEKEVGIPRERIIRIGDNKGAPYASDNFWQMGDTGPCGPCTEIFYDHGDHIWGGPPGSPEEDGDRYIEIWNIVFMQFNRQADGTMEPLPKPSVDTGMGLERIAAVLQHVNSNYDIDLFRTLIQAVAKVTGATDLSNKSLRVIADHIRSCAFLIADGVMPSNENRGYVLRRIIRRAVRHGNMLGAKETFFYKLVGPLIDVMGSAGEDLKRQQAQVEQVLKTEEEQFARTLERGLALLDEELAKLSGDTLDGETAFRLYDTYGFPVDLTADVCRERNIKVDEAGFEAAMEEQRRRAREASGFGADYNAMIRVDSASEFKGYDHLELNGKVTALFVDGKAVDAINAGQEAVVVLDQTPFYAESGGQVGDKGELKGANFSFAVEDTQKYGQAIGHIGKLAAGSLKVGDAVQADVDEARRARICLNHSATHLMHAALRQVLGTHVSQKGSLVNDKVLRFDFSHNEAMKPEEIRAVEDLVNTQIRRNLPIETNIMDLEAAKAKGAMALFGEKYDERVRVLSMGDFSTELCGGTHASRTGDIGLFRIISESGTAAGVRRIEAVTGEGAIATVHADSDRLSEVAHLLKGDSNNLADKVRSVLERTRQLEKELQQLKEQAAAQESANLSSKAIDVNGVKLLVSELSGVEPKMLRTMVDDLKNQLGSTIIVLATVVEGKVSLIAGVSKDVTDRVKAGELIGMVAQQVGGKGGGRPDMAQAGGTDAAALPAALASVKGWVSAKLQ
B2: the Km stood at 203 ± 68 µM, the kcat came to 21.8 s⁻¹ and the kcat/Km turned out to be 107000 M⁻¹ s⁻¹.
